Measurements as given in patent publication US20040167319A1 (Genmab, published 2004).
Residue numbers refer to the chain shown, from its start. Bridges are numbered along the chain shown (N, C = ends). Where no end group is shown, it is not given here. minicard = not defined here

T1: EPANPSEK of the second extracellular loop of human CD20 (human)
T1 construct: not a peptide made as such
T1 peptide: EPANPSEK

T2: NCEPANPSEKNSPCT (linker 2-14 via 1,3‑bis(bromomethyl)‑benzene (inferred); reading uncertain)
T2 construct: 15-mer looped Pepscan peptide derived from human CD20, Cys put in at two positions
T2 peptide: Ac-NCEPANPSEKNSPCT-minicard

T3: GIYAPIA (also: covalently linked to polyethylene card)
T3 construct: 7-mer Pepscan peptide derived from human CD20 (A in place of the C of GIYAPIC)
T3 peptide: GIYAPIA

T4: IPAGIYA (also: covalently linked to polyethylene card)
T4 construct: 7-mer Pepscan peptide derived from human CD20
T4 peptide: IPAGIYA

T5: CIRAHTPYC (linker 1-9 via 1,3‑bis(bromomethyl)‑benzene (inferred); not fully specified (C-terminus); also: covalently linked to minicard)
T5 construct: 9-mer looped Pepscan peptide derived from human CD20
T5 peptide: CIRAHTPYC

T6: KMECLNFIRAHCPYI (linker 4-12 via 1,3‑bis(bromomethyl)‑benzene (inferred); reading uncertain)
T6 construct: 15-mer looped Pepscan peptide derived from human CD20, Cys put in at two positions
T6 peptide: Ac-KMECLNFIRAHCPYI-minicard

T7: CRAHTPYIC (linker 1-9 via 1,3‑bis(bromomethyl)‑benzene (inferred); not fully specified (C-terminus); also: covalently linked to minicard)
T7 construct: 9-mer looped Pepscan peptide derived from human CD20
T7 peptide: CRAHTPYIC

T8: IYAPIAV (also: covalently linked to polyethylene card)
T8 construct: 7-mer Pepscan peptide derived from human CD20 (A in place of the C of IYAPICV)
T8 peptide: IYAPIAV

T9: KMESCNFIRACTPYI (linker 5-11 via 1,3‑bis(bromomethyl)‑benzene (inferred); reading uncertain)
T9 construct: 15-mer looped Pepscan peptide derived from human CD20, Cys put in at two positions
T9 peptide: Ac-KMESCNFIRACTPYI-minicard

T10: IYAPICV (also: covalently linked to polyethylene card)
T10 construct: 7-mer Pepscan peptide derived from human CD20
T10 peptide: IYAPICV

T11: AGIYAPI (also: covalently linked to polyethylene card)
T11 construct: 7-mer Pepscan peptide derived from human CD20
T11 peptide: AGIYAPI

T12: LKMECLNFIRCHTPY (linker 5-11 via 1,3‑bis(bromomethyl)‑benzene (inferred); reading uncertain)
T12 construct: 15-mer looped Pepscan peptide derived from human CD20, Cys put in at two positions
T12 peptide: Ac-LKMECLNFIRCHTPY-minicard

T13: CAHTPYINC (linker 1-9 via 1,3‑bis(bromomethyl)‑benzene (inferred); not fully specified (C-terminus); also: covalently linked to minicard)
T13 construct: 9-mer looped Pepscan peptide derived from human CD20
T13 peptide: CAHTPYINC

T14: GIYAPIC (also: covalently linked to polyethylene card)
T14 construct: 7-mer Pepscan peptide derived from human CD20
T14 peptide: GIYAPIC

T15: CFIRAHTPC (linker 1-9 via 1,3‑bis(bromomethyl)‑benzene (inferred); not fully specified (C-terminus); also: covalently linked to minicard)
T15 construct: 9-mer looped Pepscan peptide derived from human CD20
T15 peptide: CFIRAHTPC

T16: MESLCFIRAHCPYIN (linker 5-11 via 1,3‑bis(bromomethyl)‑benzene (inferred); reading uncertain)
T16 construct: 15-mer looped Pepscan peptide derived from human CD20, Cys put in at two positions
T16 peptide: Ac-MESLCFIRAHCPYIN-minicard

T17: PAGIYAP (also: covalently linked to polyethylene card)
T17 construct: 7-mer Pepscan peptide derived from human CD20
T17 peptide: PAGIYAP

T18: MESLNFIRAHTPYI of the second extracellular loop of human CD20 (human)
T18 construct: not a peptide made as such
T18 peptide: MESLNFIRAHTPYI

T19: AGIYAP of the small first extracellular loop of human CD20 (human)
T19 construct: not a peptide made as such
T19 peptide: AGIYAP

B1: 11B8 (antibody, IgG3, V domains shown)
VH: EVQLVQSGGGLVHPGGSLRLSCTGSGFTFSYHAMHWVRQAPGKGLEWVSIIGTGGVTYYADSVKGRFTISRDNVKNSLYLQMNSLRAEDMAVYYCARDYYGAGSFYDGLYGMDVWGQGTTVTVSS
VL: EIVLTQSPATLSLSPGERATLSCRASQSVSSYLAWYQQKPGQAPRLLIYDASNRATGIPARFSGSGSGTDFTLTISSLEPEDFAVYYCQQRSDWPLTFGGGTKVEIK
notes: Human monoclonal IgG3,κ from hybridoma
B2: 7D8 (antibody, IgG1, V domains shown)
VH: EVQLVESGGGLVQPDRSLRLSCAASGFTFHDYAMHWVRQAPGKGLEWVSTISWNSGTIGYADSVKGRFTISRDNAKNSLYLQMNSLRAEDTALYYCAKDIQYGNYYYGMDVWGQGTTVTVSS
VL: B1 VL with D93N, L96I, G100Q, K103R, V104L
notes: Human monoclonal IgG1,κ from hybridoma
B3: 2F2 (antibody, V domains shown)
VH: B2 VH with D15G, H30N, T57S, N77K
VL: B1 VL with D93N, L96I, G100Q, K103R, V104L
modifications: FITC- or 125I-labelled in some assays; F(ab')2 fragments in some; the letters do not carry this
notes: Human monoclonal IgG1,κ from hybridoma; also called 4C9; HuMab 2F2 (hybridoma-derived)

Experiments:
[1] = target: T1, EPANPSEK of the second extracellular …; experiment: Pepscan ELISA
Description: (§1) Pepscan ELISA-assay: The 455-well credit card-format polyethylene cards, containing the covalently linked peptides, were incubated with serum (diluted 1:1000 in blocking solution which contains 5% horse serum (v/v) and 5% ovalbumin (w/v)) (4° C., over night). After washing, the peptides were incubated with anti-human antibody peroxidase (dilution 1:1000, 1 hour, 25° C.), and after washing the peroxidase substrate, 2,2′-azino-di-3-ethylbenzthiazolin sulfonate and 2 μl/ml 3% H₂O₂ were added. After one hour, the color development was measured. The color development of the ELISA was quantified with a CCD-camera and an image processing system. The set up consists of a CCD-camera and a 55 mm lens (Sony CCD Video Camera XC-77RR, Nikon micro-nikk or 55 mm f/2.8 lens), a camera adaptor (Sony Camera adaptor DC-77RR) and the Image Processing Software package Optimas, version 6.5 (Media Cybernetics, Silver Spring, Md. 20910, U.S.A.). Optimas runs on a pentium II computer system.

NCEPANPSEKNSPCT = target: T2, NCEPANPSEKNSPCT; experiment: Pepscan ELISA, 10 µg/ml
Source text: (§2) In some cases chemical linkage of the legs of a 15-mer peptide helps to identify amino acid sequences of a potentially discontinuous epitope. […] The 9- and 15-mers were synthesized as loops and screened using credit-card format mini-PEPSCAN cards (455 peptide format/card). In all looped peptides amino acids at varied positions were replaced by a cysteine (e.g., acetyl-XCXXXXXXXXCX-minicard). The peptides were synthesized using standard Fmoc-chemistry and deprotected using TFA with scavengers. Subsequently, the deprotected peptides were reacted on the microarray with an 0.5 mM solution of 1,3-bis(bromomethyl)-benzene in ammonium bicarbonate (20 mM, pH 7.9), supplemented with acetonitrile (1:1 (v/v)). The microarrays were gently shaken in the solution for 30-60 min, while completely covered in the solution. Finally, the microarrays were washed extensively with excess of Millipore H₂O and sonicated in disrupt-buffer containing 1% sodium dodecylsulfate, 0.1% β-mercaptoethanol, in PBS (pH 7.2) at 70° C. for 30 min, followed by sonication in millipore H₂O for another 45 min. Subsequently, the microwells were ready for screening in an ELISA-assay.
(§3) […] After washing, the peptides were incubated with anti-human antibody peroxidase (dilution 1:1000, 1 hour, 25° C.), and after washing the peroxidase substrate, 2,2′-azino-di-3-ethylbenzthiazolin sulfonate and 2 μl/ml 3% H₂O₂ were added. After one hour, the color development was measured. The color development of the ELISA was quantified with a CCD-camera and an image processing system.

GIYAPIA = target: T3, GIYAPIA; experiment: Pepscan ELISA, 100 µg/ml
Source text: as §2, §3

IPAGIYA = target: T4, IPAGIYA; experiment: Pepscan ELISA, 100 µg/ml
Source text: as §2, §3

CIRAHTPYC = target: T5, CIRAHTPYC; experiment: Pepscan ELISA, 100 µg/ml
Source text: as §2, §3

KMECLNFIRAHCPYI = target: T6, KMECLNFIRAHCPYI; experiment: Pepscan ELISA, 100 µg/ml
Source text: as §2, §3

CRAHTPYIC = target: T7, CRAHTPYIC; experiment: Pepscan ELISA, 100 µg/ml
Source text: as §2, §3

IYAPIAV = target: T8, IYAPIAV; experiment: Pepscan ELISA, 100 µg/ml
Source text: as §2, §3

KMESCNFIRACTPYI = target: T9, KMESCNFIRACTPYI; experiment: Pepscan ELISA, 100 µg/ml
Source text: as §2, §3

IYAPICV = target: T10, IYAPICV; experiment: Pepscan ELISA, 100 µg/ml
Source text: as §2, §3

AGIYAPI = target: T11, AGIYAPI; experiment: Pepscan ELISA, 100 µg/ml
Source text: as §2, §3

LKMECLNFIRCHTPY = target: T12, LKMECLNFIRCHTPY; experiment: Pepscan ELISA, 100 µg/ml
Source text: as §2, §3

CAHTPYINC = target: T13, CAHTPYINC; experiment: Pepscan ELISA, 100 µg/ml
Source text: as §2, §3

GIYAPIC = target: T14, GIYAPIC; experiment: Pepscan ELISA, 100 µg/ml
Source text: as §2, §3

CFIRAHTPC = target: T15, CFIRAHTPC; experiment: Pepscan ELISA, 100 µg/ml
Source text: as §2, §3

MESLCFIRAHCPYIN = target: T16, MESLCFIRAHCPYIN; experiment: Pepscan ELISA, 100 µg/ml
Source text: as §2, §3

PAGIYAP = target: T17, PAGIYAP; experiment: Pepscan ELISA, 100 µg/ml
Source text: as §2, §3

[2] = target: T18, MESLNFIRAHTPYI of the second …; experiment: Pepscan ELISA
Description: as §1

[3] = target: T19, AGIYAP of the small first extracellular …; experiment: Pepscan ELISA
Description: as §1

| Binder | binding result [1] | OD (absorbance) (NCEPANPSEKNSPCT) | OD (absorbance) (GIYAPIA) | OD (absorbance) (IPAGIYA) | OD (absorbance) (CIRAHTPYC) | OD (absorbance) (KMECLNFIRAHCPYI) | OD (absorbance) (CRAHTPYIC) | OD (absorbance) (IYAPIAV) | OD (absorbance) (KMESCNFIRACTPYI) | OD (absorbance) (IYAPICV) | OD (absorbance) (AGIYAPI) | OD (absorbance) (LKMECLNFIRCHTPY) | OD (absorbance) (CAHTPYINC) | OD (absorbance) (GIYAPIC) | OD (absorbance) (CFIRAHTPC) | OD (absorbance) (MESLCFIRAHCPYIN) | OD (absorbance) (PAGIYAP) | binding result [2] | binding result [3] |
| --- | --- | --- | --- | --- | --- | --- | --- | --- | --- | --- | --- | --- | --- | --- | --- | --- | --- | --- | --- |
| B1 | no binding (tested: 10 µg/ml) | 159 OD | 857 OD | 950 OD | 449 OD | 3000 OD | 1600 OD | 654 OD | 3090 OD | 313 OD | 2210 OD | 738 OD | 452 OD | 251 OD | 534 OD | 956 OD | 2500 OD |  |  |
| B2 | no binding (tested: 10 µg/ml) | 183 OD | 96 OD |  | 60 OD | 41 OD | 64 OD | 58 OD | 52 OD | 58 OD | 73 OD | 41 OD | 65 OD | 64 OD | 69 OD | 55 OD | 64 OD | no binding (tested: 100 µg/ml) | no binding (tested: 100 µg/ml) |
| B3 |  | 61 OD | 96 OD | 85 OD | 92 OD | 66 OD | 87 OD | 76 OD | 78 OD | 99 OD | 98 OD | 87 OD | 106 OD | 93 OD | 114 OD | 65 OD | 85 OD |  |  |
